Measured values as given in publication PMC6078968, “Structural insights into the gating of DNA passage by the topoisomerase II DNA-gate” (Nature Communications, 2018).

What was measured:
[1] = biological target: the molecule itself; assay: crystal structure; open DNA-gate form of the hTop2β^core-DNA cleavage complex, space group P3_(2)21, one subunit in the asymmetric unit, homodimer built by the crystallographic twofold axis; 2.75 Å (5ZEN) and 3.87 Å with iodine-labelled DNA (5ZQF); MnCl2 in the sample buffer, reservoir pH 5.8, 4 °C
[2] = biological target: T1, hTop2βcore (DNA-binding and cleavage core of human topoisomerase 2β) (human, UniProt Q02880-2 445-1201); assay: X-ray crystallography (3.87 Å); open DNA-gate cleavage complex; Mn2+ (2 mM MnCl2), Mg acetate; etoposide or doxorubicin in crystallization mix, refined as binary complex; Crystallization: 5 mg/mL (~28 uM) protein, ~34 uM duplex, 2 mM etoposide or doxorubicin, 30 mM Tris-HCl pH 7.0, 70 mM NaCl, 2 mM MnCl2 (MgCl2 for P21), 1 mM EDTA, 2 mM β-mercaptoethanol; reservoir 100 mM Mg acetate, 50 mM MES pH 5.8 (5.6 for P21), …; settings: protein: recombinant; chain copies: 2; blunt; self-complementary, 2 copies; cleaved with 4-nt stagger in the complex
[3] = biological target: T1, hTop2βcore (DNA-binding and cleavage …); assay: X-ray crystallography (2.75 Å); open DNA-gate cleavage complex; Mn2+ (2 mM MnCl2), Mg acetate; etoposide or doxorubicin in crystallization mix, refined as binary complex; Crystallization: 5 mg/mL (~28 uM) protein, ~34 uM duplex, 2 mM etoposide or doxorubicin, 30 mM Tris-HCl pH 7.0, 70 mM NaCl, 2 mM MnCl2 (MgCl2 for P21), 1 mM EDTA, 2 mM β-mercaptoethanol; reservoir 100 mM Mg acetate, 50 mM MES pH 5.8 (5.6 for P21), …; settings: protein: recombinant; chain copies: 2; blunt; self-complementary, 2 copies of S1; cleaved with 4-nt stagger in the complex

B1: DNA-binding and cleavage core of human topoisomerase 2β (hTop2β^core), in the covalent cleavage complex with a 20-bp duplex DNA (domain or fragment, UniProt Q02880-2 445-1201, looked up)
chain: SVKYSKIKGIPKLDDANDAGGKHSLECTLILTEGDSAKSLAVSGLGVIGRDRYGVFPLRGKILNVREASHKQIMENAEINNIIKIVGLQYKKSYDDAESLKTLRYGKIMIMTDQDQDGSHIKGLLINFIHHNWPSLLKHGFLEEFITPIVKASKNKQELSFYSIPEFDEWKKHIENQKAWKIKYYKGLGTSTAKEAKEYFADMERHRILFRYAGPEDDAAITLAFSKKKIDDRKEWLTNFMEDRRQRRLHGLPEQFLYGTATKHLTYNDFINKELILFSNSDNERSIPSLVDGFKPGQRKVLFTCFKRNDKREVKVAQLAGSVAEMSAYHHGEQALMMTIVNLAQNFVGSNNINLLQPIGQFGTRLHGGKDAASPRYIFTMLSTLARLLFPAVDDNLLKFLYDDNQRVEPEWYIPIIPMVLINGAEGIGTGWACKLPNYDAREIVNNVRRMLDGLDPHPMLPNYKNFKGTIQELGQNQYAVSGEIFVVDRNTVEITELPVRTWTQVYKEQVLEPMLNGTDKTPALISDYKEYHTDTTVKFVVKMTEEKLAQAEAAGLHKVFKLQTTLTCNSMVLFDHMGCLKKYETVQDILKEFFDLRLSYYGLRKEWLVGMLGAESTKLNNQARFILEKIQGKITIENRSKKDLIQMLVQRGYESDPVKAWKEAQEKAAEEDETQNQHDDSSSDSGTPSGPDFNYILNMSLWSLTKEKVEELIKQRDAKGREVNDLKRKSPSDLWKEDLAAFVEELDKVESQERED
modifications: catalytic tyrosine (Tyr821) joined to the 5′-phosphate of the cleaved G-segment DNA by a phosphotyrosyl linkage
notes: Not seen in 5ZEN chain A: 445-451, 597-602, 616-624, 703-706, 1112-1134; the His tag is surmised from the Ni-NTA step; also called hTop2^core; Top2 cleavage complex; source: E. coli BL21 (DE3) Star-pLysS, purified (Ni-NTA, heparin, Superdex 200)
**Q.** Does B1 bind [1]?
**A.** Result: binds

B2: 20-bp G-segment duplex, 5-iododeoxyuridine labeled (DNAI) (dsDNA)
DNA 1: AGCCGAGCUGCAGCUCGGCU
DNA 2: AGCCGAGCUGCAGCUCGGCU
modifications: 5-iodo-2'-deoxyuridine replaces all thymidines (positions 9, 15, 20 of each strand); U denotes iododeoxyuridine, DNA backbone
**Q.** Does B2 bind [2]?
**A.** Result: binds

B3: 20-bp G-segment duplex (native) (dsDNA)
DNA 1: AGCCGAGCTGCAGCTCGGCT
DNA 2: AGCCGAGCTGCAGCTCGGCT
**Q.** Does B3 bind [3]?
**A.** Result: binds
